Values quoted from earlier work, collected in patent EP4803095A2, “FORMULATIONS OF GLUCAGON-LIKE-PEPTIDE-2 (GLP-2) ANALOGUES” (Zealand Pharma A/S, priority 2018, dated 2026).
Read-outs that look alike come from different tables or passages of the source.

Conditions: for half-life in humans: background art

Substance | half-life in humans | half-life in humans (listed as native GLP-2) | half-life (in vivo)
GLP-2 [3-33]: truncated GLP-2 [3-33] (DGSFSDEMNTILDNLAARDFINWLIQTKITD; Glucagon-like peptide 2; UniProt P01275 148-178, looked up, fragment) | ~27 min |  | 
Hy-His-Ala-Asp-Gly-Ser-Phe-Ser-Asp-Glu-Met-Asn-Thr-Ile-Leu-Asp-Asn-Leu-Ala-Ala-Arg-Asp-Phe-Ile-Asn-Trp-Leu-Ile-Gln-Thr-Lys-Ile-Thr-Asp-OH [GLP-2 [1-33]] | around 7 minutes | seven | 
teduglutide: GLP-2 analogue containing Gly substitution at position 2 |  |  | about two
